Experimental data as given in patent US20050037339A1 (published 2005).

Columns and labels:
BoNT-A C-fragment [1] = biological target: T1, BoNT-A C-fragment (UniProt P0DPI0 871-1296); assay: SPR (BIAcore), purified scFv; Kd calculated as koff/kon
BoNT-A C-fragment [2] = biological target: T1, BoNT-A C-fragment; assay: SPR (BIAcore), purified scFv

T1 sequence (P0DPI0 871-1296): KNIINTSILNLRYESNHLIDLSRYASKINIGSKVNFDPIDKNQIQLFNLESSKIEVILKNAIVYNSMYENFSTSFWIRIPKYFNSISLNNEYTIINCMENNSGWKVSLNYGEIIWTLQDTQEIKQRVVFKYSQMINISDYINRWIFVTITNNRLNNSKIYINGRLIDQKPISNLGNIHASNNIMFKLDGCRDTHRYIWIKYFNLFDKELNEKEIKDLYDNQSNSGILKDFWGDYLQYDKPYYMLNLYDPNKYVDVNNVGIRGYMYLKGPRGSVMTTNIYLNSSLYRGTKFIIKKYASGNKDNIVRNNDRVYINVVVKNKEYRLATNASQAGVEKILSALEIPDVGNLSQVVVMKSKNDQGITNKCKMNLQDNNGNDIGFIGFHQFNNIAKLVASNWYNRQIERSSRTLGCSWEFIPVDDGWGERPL

B1: anti-BoNT-A scFv 2B6 (scFv)
chain: VKLVESGPGLVKPSQSLSLTCTVTGYSITSDYAWNWIRQFPGNKLEWMGYINYDGSNNYNPSLKNRISITRDTSKNQFFLKLNSVTSEDTATYYCARAGDGYYVDWYFDVWGTGTTVIVSSGGGGSGGGGSGGGGSYIELTQSPASLAVSLGQRATTSCRASESVDSYGNSFMHWYQQKPGQPPKLLIYLASNLESGVPARFSGSGSRTDFTLTIDPVEADDAATYYCQQNNEDPYTFGGGTKLEIKS
What does the source list for B1?
Kd (BoNT-A C-fragment [1]): 71.5 nM; koff (BoNT-A C-fragment [2]): 0.0078 s⁻¹; kon (BoNT-A C-fragment [2]): 110000 M⁻¹ s⁻¹
